Stoichiometry N data for 1 substance are collected here from paper PMC10769878.

The target in this test is phi3T_93 (Bacillus subtilis phage phi3T). In words: SEC-MALS; 20 µl at 1 mg/ml on Shodex KW-402.5-4F, 100 mM HEPES pH 7.5, 250 mM NaCl, 0.3 ml/min.

On to phi3T_93 (natural protein), for which the stoichiometry N is 2.
